Experimental data published in publication PMC3486956.

Target: aggregated glucose-6-phosphate dehydrogenase (G6PDH) from Leuconostoc mesenteroides (Leuconostoc mesenteroides) (UniProt P11411)
Assay: retention with aggregates on a 0.1-μm filter, SDS-PAGE

UniProt P11411, sequence (P11411 whole entry): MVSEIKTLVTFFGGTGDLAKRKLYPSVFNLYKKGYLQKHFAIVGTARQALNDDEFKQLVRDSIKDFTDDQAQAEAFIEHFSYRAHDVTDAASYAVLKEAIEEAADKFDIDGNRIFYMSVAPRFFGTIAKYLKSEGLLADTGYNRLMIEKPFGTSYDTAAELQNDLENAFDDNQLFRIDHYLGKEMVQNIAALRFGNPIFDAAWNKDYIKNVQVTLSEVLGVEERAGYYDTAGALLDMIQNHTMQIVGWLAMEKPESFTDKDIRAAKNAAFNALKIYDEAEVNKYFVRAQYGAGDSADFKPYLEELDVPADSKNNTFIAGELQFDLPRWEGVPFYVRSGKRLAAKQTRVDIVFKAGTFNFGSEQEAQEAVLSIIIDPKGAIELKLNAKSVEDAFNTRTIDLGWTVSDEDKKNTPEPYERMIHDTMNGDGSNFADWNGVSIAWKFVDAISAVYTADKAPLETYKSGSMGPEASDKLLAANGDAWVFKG

Substance	decrease of the amount bound compared to wt ClpB
ClpB 2P (GG motif converted into PP) (from UniProt P63284 1-857) (natural protein)	50%
ClpB 4G (four Gly inserted in the N-terminal linker) (from UniProt P63284 1-857) (natural protein)	50%
